Laboratory results as given in publication PMC12469269, “Investigating SMR Peptide Interactions with Breast Cancer-Associated Proteins” (International Journal of Molecular Sciences, 2025).

How the values were obtained:
[1] = molecular target: Recombinant Human GRP75/HSPA9B/Mortalin His Protein (human) (UniProt P38646); test: SPR
[2] = molecular target: Recombinant Human Vimentin Protein, CF (human) (UniProt P08670); test: SPR
Chain of Recombinant Human Vimentin Protein, CF (human) (P08670 whole entry): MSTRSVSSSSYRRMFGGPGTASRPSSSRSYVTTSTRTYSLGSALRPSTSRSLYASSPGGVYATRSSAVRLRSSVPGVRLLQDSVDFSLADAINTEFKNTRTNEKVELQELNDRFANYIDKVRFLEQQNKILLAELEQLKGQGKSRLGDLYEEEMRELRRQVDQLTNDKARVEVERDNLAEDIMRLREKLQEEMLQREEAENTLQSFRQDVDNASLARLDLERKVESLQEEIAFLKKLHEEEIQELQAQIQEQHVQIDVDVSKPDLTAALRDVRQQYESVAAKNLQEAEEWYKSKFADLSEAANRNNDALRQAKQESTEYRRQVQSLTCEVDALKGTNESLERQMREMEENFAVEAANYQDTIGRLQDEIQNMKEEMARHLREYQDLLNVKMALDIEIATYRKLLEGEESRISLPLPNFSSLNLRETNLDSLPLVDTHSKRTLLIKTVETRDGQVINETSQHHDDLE

Chain of Recombinant Human GRP75/HSPA9B/Mortalin His Protein (human) (P38646 47-679): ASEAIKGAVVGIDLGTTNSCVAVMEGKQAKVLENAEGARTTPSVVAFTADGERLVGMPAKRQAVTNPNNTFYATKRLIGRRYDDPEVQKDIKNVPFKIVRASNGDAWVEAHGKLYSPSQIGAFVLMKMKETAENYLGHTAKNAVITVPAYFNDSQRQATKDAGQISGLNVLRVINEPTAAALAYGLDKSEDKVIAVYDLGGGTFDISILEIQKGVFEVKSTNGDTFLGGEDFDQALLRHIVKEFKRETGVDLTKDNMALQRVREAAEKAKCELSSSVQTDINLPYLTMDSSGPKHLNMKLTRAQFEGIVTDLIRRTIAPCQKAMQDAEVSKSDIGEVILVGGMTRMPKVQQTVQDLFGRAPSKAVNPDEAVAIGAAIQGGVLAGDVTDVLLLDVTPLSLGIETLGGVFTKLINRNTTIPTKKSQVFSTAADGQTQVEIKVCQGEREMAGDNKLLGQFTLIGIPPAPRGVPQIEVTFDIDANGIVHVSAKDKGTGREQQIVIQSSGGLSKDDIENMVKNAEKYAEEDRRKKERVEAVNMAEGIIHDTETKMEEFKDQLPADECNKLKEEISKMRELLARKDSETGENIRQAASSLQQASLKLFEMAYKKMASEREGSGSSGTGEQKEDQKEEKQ

Substance: SMRwt peptide
- Kd [1]: 20.7 µM
- Kd [2]: 6.63 µM
